From patent US20200024322A1 (Eli Lilly, published 2020)
Numbered stars: 1 amine (or outer) side, 2 acyl side, 3 side chain; on linkers, the order of the positions; unused ones are H or OH. Square brackets hold non-standard residues; d marks the D form. Side chains are listed from the residue outwards. Ends that are not written are not given here. * marks the point of attachment. C20 diacid = O=C(O)CCCCCCCCCCCCCCCCCCC(=O)*; γGlu = O=C(O)[C@H](CCC(=O)[*:2])N[*:1]; αMeL = CC(C)C[C@](C)(N)C(=O)O; αMeK = C[C@](N)(CCCCN)C(=O)O; Dab = NCC[C@H](N)C(=O)O; AEEA = NCCOCCOCC(=O)O; Aib = CC(C)(N)C(=O)O

T1: human GIP receptor (human, UniProt P48546 22-466)
T1 construct: whole, on cells; Used as crude membranes of stably transfected CHO cells; also called hGIPR
T1 sequence (looked up): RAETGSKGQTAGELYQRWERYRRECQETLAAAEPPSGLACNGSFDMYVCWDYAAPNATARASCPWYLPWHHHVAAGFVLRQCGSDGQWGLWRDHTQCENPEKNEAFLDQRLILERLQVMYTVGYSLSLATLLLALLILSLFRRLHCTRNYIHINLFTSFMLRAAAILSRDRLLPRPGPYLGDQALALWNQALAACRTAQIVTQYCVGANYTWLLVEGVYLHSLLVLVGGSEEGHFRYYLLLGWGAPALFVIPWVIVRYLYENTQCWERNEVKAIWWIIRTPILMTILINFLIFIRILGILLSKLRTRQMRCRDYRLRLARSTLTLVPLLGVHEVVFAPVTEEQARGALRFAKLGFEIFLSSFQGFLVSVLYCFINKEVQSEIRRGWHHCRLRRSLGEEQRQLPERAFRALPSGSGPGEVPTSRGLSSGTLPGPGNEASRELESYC

B1: Example 12 (peptide)
peptide: Y[Aib]EGTFTSDYSILLDKIAQK([AEEA-AEEA-γGlu-C20 diacid])AFIEYLIEGGPSSGAPPPS-NH2
modifications: N-terminus assumed
SMILES: CC[C@H](C)[C@H](NC(=O)[C@H](CCCCN)NC(=O)[C@H](CC(=O)O)NC(=O)[C@H](CC(C)C)NC(=O)[C@H](CC(C)C)NC(=O)[C@@H](NC(=O)[C@H](CO)NC(=O)[C@H](Cc1ccc(O)cc1)NC(=O)[C@H](CC(=O)O)NC(=O)[C@H](CO)NC(=O)[C@@H](NC(=O)[C@H](Cc1ccccc1)NC(=O)[C@@H](NC(=O)CNC(=O)[C@H](CCC(=O)O)NC(=O)C(C)(C)NC(=O)[C@@H](N)Cc1ccc(O)cc1)[C@@H](C)O)[C@@H](C)O)[C@@H](C)CC)C(=O)N[C@@H](C)C(=O)N[C@@H](CCC(N)=O)C(=O)N[C@@H](CCCCNC(=O)COCCOCCNC(=O)COCCOCCNC(=O)CC[C@H](NC(=O)CCCCCCCCCCCCCCCCCCC(=O)O)C(=O)O)C(=O)N[C@@H](C)C(=O)N[C@@H](Cc1ccccc1)C(=O)N[C@H](C(=O)N[C@@H](CCC(=O)O)C(=O)N[C@@H](Cc1ccc(O)cc1)C(=O)N[C@@H](CC(C)C)C(=O)N[C@H](C(=O)N[C@@H](CCC(=O)O)C(=O)NCC(=O)NCC(=O)N1CCC[C@H]1C(=O)N[C@@H](CO)C(=O)N[C@@H](CO)C(=O)NCC(=O)N[C@@H](C)C(=O)N1CCC[C@H]1C(=O)N1CCC[C@H]1C(=O)N1CCC[C@H]1C(=O)N[C@@H](CO)C(N)=O)[C@@H](C)CC)[C@@H](C)CC
B2: Example 17 (peptide)
peptide: H[Aib]EGTFTSDYSILLDKIAQK([AEEA-AEEA-γGlu-C20 diacid])AFIEYLLE[Aib]GPSSG-NH2
modifications: N-terminus assumed
SMILES: CC[C@H](C)[C@H](NC(=O)[C@H](CCCCN)NC(=O)[C@H](CC(=O)O)NC(=O)[C@H](CC(C)C)NC(=O)[C@H](CC(C)C)NC(=O)[C@@H](NC(=O)[C@H](CO)NC(=O)[C@H](Cc1ccc(O)cc1)NC(=O)[C@H](CC(=O)O)NC(=O)[C@H](CO)NC(=O)[C@@H](NC(=O)[C@H](Cc1ccccc1)NC(=O)[C@@H](NC(=O)CNC(=O)[C@H](CCC(=O)O)NC(=O)C(C)(C)NC(=O)[C@@H](N)Cc1c[nH]cn1)[C@@H](C)O)[C@@H](C)O)[C@@H](C)CC)C(=O)N[C@@H](C)C(=O)N[C@@H](CCC(N)=O)C(=O)N[C@@H](CCCCNC(=O)COCCOCCNC(=O)COCCOCCNC(=O)CC[C@H](NC(=O)CCCCCCCCCCCCCCCCCCC(=O)O)C(=O)O)C(=O)N[C@@H](C)C(=O)N[C@@H](Cc1ccccc1)C(=O)N[C@H](C(=O)N[C@@H](CCC(=O)O)C(=O)N[C@@H](Cc1ccc(O)cc1)C(=O)N[C@@H](CC(C)C)C(=O)N[C@@H](CC(C)C)C(=O)N[C@@H](CCC(=O)O)C(=O)NC(C)(C)C(=O)NCC(=O)N1CCC[C@H]1C(=O)N[C@@H](CO)C(=O)N[C@@H](CO)C(=O)NCC(N)=O)[C@@H](C)CC
B3: Example 15 (peptide)
peptide: H[Aib]EGTFTSDYSILLDKK([AEEA-AEEA-γGlu-C20 diacid])AQ[Aib]AFIEYLLE[Aib]GPSSGAPPPS-NH2
modifications: N-terminus assumed
SMILES: CC[C@H](C)[C@H](NC(=O)[C@H](Cc1ccccc1)NC(=O)[C@H](C)NC(=O)C(C)(C)NC(=O)[C@H](CCC(N)=O)NC(=O)[C@H](C)NC(=O)[C@H](CCCCNC(=O)COCCOCCNC(=O)COCCOCCNC(=O)CC[C@H](NC(=O)CCCCCCCCCCCCCCCCCCC(=O)O)C(=O)O)NC(=O)[C@H](CCCCN)NC(=O)[C@H](CC(=O)O)NC(=O)[C@H](CC(C)C)NC(=O)[C@H](CC(C)C)NC(=O)[C@@H](NC(=O)[C@H](CO)NC(=O)[C@H](Cc1ccc(O)cc1)NC(=O)[C@H](CC(=O)O)NC(=O)[C@H](CO)NC(=O)[C@@H](NC(=O)[C@H](Cc1ccccc1)NC(=O)[C@@H](NC(=O)CNC(=O)[C@H](CCC(=O)O)NC(=O)C(C)(C)NC(=O)[C@@H](N)Cc1c[nH]cn1)[C@@H](C)O)[C@@H](C)O)[C@@H](C)CC)C(=O)N[C@@H](CCC(=O)O)C(=O)N[C@@H](Cc1ccc(O)cc1)C(=O)N[C@@H](CC(C)C)C(=O)N[C@@H](CC(C)C)C(=O)N[C@@H](CCC(=O)O)C(=O)NC(C)(C)C(=O)NCC(=O)N1CCC[C@H]1C(=O)N[C@@H](CO)C(=O)N[C@@H](CO)C(=O)NCC(=O)N[C@@H](C)C(=O)N1CCC[C@H]1C(=O)N1CCC[C@H]1C(=O)N1CCC[C@H]1C(=O)N[C@@H](CO)C(N)=O
B4: Example 16 (peptide)
peptide: H[Aib]EGTFTSDYSILLDKK([AEEA-AEEA-γGlu-C20 diacid])AQ[Aib]AFIEYLIE[Aib]GPSSGAPPPS-NH2
modifications: N-terminus assumed
SMILES: CC[C@H](C)[C@H](NC(=O)[C@H](Cc1ccccc1)NC(=O)[C@H](C)NC(=O)C(C)(C)NC(=O)[C@H](CCC(N)=O)NC(=O)[C@H](C)NC(=O)[C@H](CCCCNC(=O)COCCOCCNC(=O)COCCOCCNC(=O)CC[C@H](NC(=O)CCCCCCCCCCCCCCCCCCC(=O)O)C(=O)O)NC(=O)[C@H](CCCCN)NC(=O)[C@H](CC(=O)O)NC(=O)[C@H](CC(C)C)NC(=O)[C@H](CC(C)C)NC(=O)[C@@H](NC(=O)[C@H](CO)NC(=O)[C@H](Cc1ccc(O)cc1)NC(=O)[C@H](CC(=O)O)NC(=O)[C@H](CO)NC(=O)[C@@H](NC(=O)[C@H](Cc1ccccc1)NC(=O)[C@@H](NC(=O)CNC(=O)[C@H](CCC(=O)O)NC(=O)C(C)(C)NC(=O)[C@@H](N)Cc1c[nH]cn1)[C@@H](C)O)[C@@H](C)O)[C@@H](C)CC)C(=O)N[C@@H](CCC(=O)O)C(=O)N[C@@H](Cc1ccc(O)cc1)C(=O)N[C@@H](CC(C)C)C(=O)N[C@H](C(=O)N[C@@H](CCC(=O)O)C(=O)NC(C)(C)C(=O)NCC(=O)N1CCC[C@H]1C(=O)N[C@@H](CO)C(=O)N[C@@H](CO)C(=O)NCC(=O)N[C@@H](C)C(=O)N1CCC[C@H]1C(=O)N1CCC[C@H]1C(=O)N1CCC[C@H]1C(=O)N[C@@H](CO)C(N)=O)[C@@H](C)CC
B5: Example 14 (peptide)
peptide: Y[Aib]EGTFTSDYSILLDKIAQK([AEEA-AEEA-γGlu-C20 diacid])EFIQYLLE[Aib]GPSSGAPPPS-NH2
modifications: N-terminus assumed
SMILES: CC[C@H](C)[C@H](NC(=O)[C@H](CCCCN)NC(=O)[C@H](CC(=O)O)NC(=O)[C@H](CC(C)C)NC(=O)[C@H](CC(C)C)NC(=O)[C@@H](NC(=O)[C@H](CO)NC(=O)[C@H](Cc1ccc(O)cc1)NC(=O)[C@H](CC(=O)O)NC(=O)[C@H](CO)NC(=O)[C@@H](NC(=O)[C@H](Cc1ccccc1)NC(=O)[C@@H](NC(=O)CNC(=O)[C@H](CCC(=O)O)NC(=O)C(C)(C)NC(=O)[C@@H](N)Cc1ccc(O)cc1)[C@@H](C)O)[C@@H](C)O)[C@@H](C)CC)C(=O)N[C@@H](C)C(=O)N[C@@H](CCC(N)=O)C(=O)N[C@@H](CCCCNC(=O)COCCOCCNC(=O)COCCOCCNC(=O)CC[C@H](NC(=O)CCCCCCCCCCCCCCCCCCC(=O)O)C(=O)O)C(=O)N[C@@H](CCC(=O)O)C(=O)N[C@@H](Cc1ccccc1)C(=O)N[C@H](C(=O)N[C@@H](CCC(N)=O)C(=O)N[C@@H](Cc1ccc(O)cc1)C(=O)N[C@@H](CC(C)C)C(=O)N[C@@H](CC(C)C)C(=O)N[C@@H](CCC(=O)O)C(=O)NC(C)(C)C(=O)NCC(=O)N1CCC[C@H]1C(=O)N[C@@H](CO)C(=O)N[C@@H](CO)C(=O)NCC(=O)N[C@@H](C)C(=O)N1CCC[C@H]1C(=O)N1CCC[C@H]1C(=O)N1CCC[C@H]1C(=O)N[C@@H](CO)C(N)=O)[C@@H](C)CC

How the values were obtained:
[1] = biological target: T1, human GIP receptor; assay: SPA, [125I]-GIP displacement, hGIPR membranes
[2] = biological target: T2, human glucagon receptor (human, UniProt P47871 26-477); assay: SPA, [125I]-Gcg displacement, hGcgR membranes
T2 construct: whole, on cells; Used as crude membranes of stably transfected HEK293 cells; also called hGcgR; hGLcgR
T2 sequence (P47871 26-477): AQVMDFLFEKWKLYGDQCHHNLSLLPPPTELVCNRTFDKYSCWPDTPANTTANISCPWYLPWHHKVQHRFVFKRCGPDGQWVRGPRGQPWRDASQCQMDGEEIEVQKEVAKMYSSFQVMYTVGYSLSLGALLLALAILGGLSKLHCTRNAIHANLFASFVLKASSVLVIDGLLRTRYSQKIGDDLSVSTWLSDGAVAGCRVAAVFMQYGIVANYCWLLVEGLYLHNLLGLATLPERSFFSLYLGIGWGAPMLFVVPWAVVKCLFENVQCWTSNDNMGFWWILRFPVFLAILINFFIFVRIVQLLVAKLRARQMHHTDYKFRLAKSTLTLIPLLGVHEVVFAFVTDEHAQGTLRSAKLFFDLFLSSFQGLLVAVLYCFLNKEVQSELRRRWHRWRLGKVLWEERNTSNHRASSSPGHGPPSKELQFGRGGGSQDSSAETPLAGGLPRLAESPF

[3] = biological target: T3, human GLP-1 receptor (human, UniProt P43220 24-463); assay: SPA, [125I]-GLP-1 displacement, hGLP-1R membranes
T3 construct: whole, on cells; Used as crude membranes of stably transfected HEK293 cells; also called hGLP1R; hGLP-1R

Binder | Ki [1] | Ki [2] | Ki [3]
B1 | 0.167 nM | 684 nM | 12.9 nM
B2 | 0.606 nM | 261 nM | 7.63 nM
H[Aib]EGTFTSDYSI[αMeL]LDKK([Dab-AEEA-Dab-AEEA-C20 diacid])AQ[αMeK]AFIQYLLA[Aib]GPSSGAPKPS-NH2 [Example 18] | 0.0798 nM | 50.1 nM | 0.319 nM
H[Aib]EGTFTSDYSI[αMeL]LDKK([Dab-AEEA-Dab-AEEA-C20 diacid])AQ[αMeK]AFIQYLLA[Aib]GPSSGAPPPS-NH2 [Example 19] | 0.0518 nM | 60.5 nM | 0.24 nM
B3 | 0.284 nM | 130 nM | 2.19 nM
B4 | 0.0841 nM | 371 nM | 2.78 nM
B5 | 0.0494 nM | 160 nM | 29.6 nM
